From PMC8432736 come the findings set out here.

The experiment concerns the target Recombinant active ACE2-Fc (ACRO biosystems, AC2-H5257) (human) (UniProt Q9BYF1). Nature of the experiment: SPR. A general note: Surface plasmon resonance follows binding to a sensor surface in real time, without labels.
Sequence of UniProt Q9BYF1 (Q9BYF1 18-740): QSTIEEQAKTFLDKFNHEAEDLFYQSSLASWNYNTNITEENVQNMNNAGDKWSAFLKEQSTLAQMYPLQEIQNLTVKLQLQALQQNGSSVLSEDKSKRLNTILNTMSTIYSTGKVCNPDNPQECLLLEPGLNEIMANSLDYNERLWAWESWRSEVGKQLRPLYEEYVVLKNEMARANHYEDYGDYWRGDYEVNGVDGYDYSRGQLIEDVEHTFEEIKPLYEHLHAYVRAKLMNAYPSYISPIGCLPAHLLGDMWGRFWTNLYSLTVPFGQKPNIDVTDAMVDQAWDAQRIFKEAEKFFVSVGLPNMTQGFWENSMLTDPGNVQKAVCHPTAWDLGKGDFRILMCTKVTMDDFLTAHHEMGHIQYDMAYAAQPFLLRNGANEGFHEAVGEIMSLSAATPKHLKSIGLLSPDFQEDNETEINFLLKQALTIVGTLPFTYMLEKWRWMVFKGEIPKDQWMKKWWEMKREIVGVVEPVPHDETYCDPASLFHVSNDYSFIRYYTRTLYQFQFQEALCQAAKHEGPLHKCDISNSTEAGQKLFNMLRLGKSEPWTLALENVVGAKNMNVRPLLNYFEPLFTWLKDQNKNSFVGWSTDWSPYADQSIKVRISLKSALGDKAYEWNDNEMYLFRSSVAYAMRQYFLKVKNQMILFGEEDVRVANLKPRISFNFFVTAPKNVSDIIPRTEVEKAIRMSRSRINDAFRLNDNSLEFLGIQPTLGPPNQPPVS

Regarding Angiotensin II (peptide), the Kd (in general, the constant that tells how readily two partners part at equilibrium) is 117 nM.
